Here are results for six substances from patent US20030166163A1.

One may read the EC50 as the concentration needed to bring the measured effect to its halfway point. Low readings indicate higher potency in that assay, high ones lower potency in that assay.

Assay [1] addresses human intermediate affinity IL-2Rβγ on TF-1β cells (human) (UniProt P14784). Description: cell-based or functional assay.
The target of assay [2] is human IL-2Rαβγ on Kit-225 cells (human) (UniProt P01589). The experiment in a line: cell-based or functional assay.
The target in assay [3] is murine high affinity IL-2Rαβγ on CTLL-2 cells (murine) (UniProt P01590). Description: cell-based or functional assay.
The target in assay [4] is FcγR receptors on U937 cells. The experiment in a line: cell-based ELISA on U937 cells, detection with FITC-conjugated anti-human IgG Fc F(ab')2. A general note: ELISA stands for enzyme-linked immunosorbent assay.

Sequence of UniProt P14784 (P14784 27-551, chain 1 of 2): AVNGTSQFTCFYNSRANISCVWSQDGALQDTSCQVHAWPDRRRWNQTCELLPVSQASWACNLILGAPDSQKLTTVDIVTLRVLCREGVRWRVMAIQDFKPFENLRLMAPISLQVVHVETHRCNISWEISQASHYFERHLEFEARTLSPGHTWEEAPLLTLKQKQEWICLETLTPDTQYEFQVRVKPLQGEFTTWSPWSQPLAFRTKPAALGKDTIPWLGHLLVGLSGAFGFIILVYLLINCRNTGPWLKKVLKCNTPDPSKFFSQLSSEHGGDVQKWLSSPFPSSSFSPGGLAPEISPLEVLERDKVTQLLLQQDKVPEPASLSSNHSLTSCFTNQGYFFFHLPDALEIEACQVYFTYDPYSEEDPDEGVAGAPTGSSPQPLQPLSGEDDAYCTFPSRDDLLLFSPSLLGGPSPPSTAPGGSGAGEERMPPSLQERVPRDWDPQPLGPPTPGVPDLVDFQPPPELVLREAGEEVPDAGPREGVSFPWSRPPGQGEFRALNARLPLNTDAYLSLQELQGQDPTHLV
Sequence of UniProt P14784 (P31785 23-369, chain 2 of 2, further chain): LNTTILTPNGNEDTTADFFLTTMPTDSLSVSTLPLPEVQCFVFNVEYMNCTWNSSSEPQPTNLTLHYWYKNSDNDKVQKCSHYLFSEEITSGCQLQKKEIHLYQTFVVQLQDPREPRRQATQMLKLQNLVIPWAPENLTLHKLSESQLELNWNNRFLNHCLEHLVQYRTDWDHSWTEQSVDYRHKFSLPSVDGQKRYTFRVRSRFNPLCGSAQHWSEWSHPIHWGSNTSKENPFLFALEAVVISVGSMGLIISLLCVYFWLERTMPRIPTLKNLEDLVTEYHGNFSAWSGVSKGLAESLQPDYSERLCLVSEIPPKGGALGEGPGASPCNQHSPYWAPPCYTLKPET
Sequence of UniProt P01590 (P01590 22-268, chain 1 of 3): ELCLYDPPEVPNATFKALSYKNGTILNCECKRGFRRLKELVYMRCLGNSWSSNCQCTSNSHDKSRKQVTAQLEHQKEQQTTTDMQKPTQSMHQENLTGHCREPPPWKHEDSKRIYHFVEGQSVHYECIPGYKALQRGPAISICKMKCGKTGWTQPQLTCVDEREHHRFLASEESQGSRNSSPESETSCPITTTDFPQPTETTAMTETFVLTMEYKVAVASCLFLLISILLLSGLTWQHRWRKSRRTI
Sequence of UniProt P01590 (P16297 27-539, chain 2 of 3, further chain): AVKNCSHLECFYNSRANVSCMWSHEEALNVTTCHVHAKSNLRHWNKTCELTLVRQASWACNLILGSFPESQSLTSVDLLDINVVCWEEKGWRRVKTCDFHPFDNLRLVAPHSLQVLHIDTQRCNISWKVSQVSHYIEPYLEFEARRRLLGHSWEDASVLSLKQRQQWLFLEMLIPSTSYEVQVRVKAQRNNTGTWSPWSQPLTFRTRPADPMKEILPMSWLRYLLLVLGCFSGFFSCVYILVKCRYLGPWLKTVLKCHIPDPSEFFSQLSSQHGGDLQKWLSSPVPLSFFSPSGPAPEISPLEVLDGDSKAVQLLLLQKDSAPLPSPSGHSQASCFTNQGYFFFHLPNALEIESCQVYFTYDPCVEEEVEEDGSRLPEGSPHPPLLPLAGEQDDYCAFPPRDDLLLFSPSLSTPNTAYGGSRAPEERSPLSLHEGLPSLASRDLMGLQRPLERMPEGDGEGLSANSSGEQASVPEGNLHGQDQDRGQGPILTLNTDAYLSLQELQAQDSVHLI
Sequence of UniProt P01590 (P34902 23-369, chain 3 of 3, further chain): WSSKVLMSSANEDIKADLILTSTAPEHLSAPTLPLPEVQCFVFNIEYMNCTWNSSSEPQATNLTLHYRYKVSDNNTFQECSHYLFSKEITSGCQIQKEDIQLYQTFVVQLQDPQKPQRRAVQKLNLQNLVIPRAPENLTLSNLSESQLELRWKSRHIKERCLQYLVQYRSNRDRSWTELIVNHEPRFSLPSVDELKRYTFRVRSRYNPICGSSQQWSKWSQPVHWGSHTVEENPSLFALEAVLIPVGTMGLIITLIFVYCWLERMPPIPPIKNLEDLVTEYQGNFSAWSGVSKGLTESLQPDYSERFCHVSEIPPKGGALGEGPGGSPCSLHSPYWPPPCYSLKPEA
Sequence of UniProt P01589 (P01589 22-272, chain 1 of 3): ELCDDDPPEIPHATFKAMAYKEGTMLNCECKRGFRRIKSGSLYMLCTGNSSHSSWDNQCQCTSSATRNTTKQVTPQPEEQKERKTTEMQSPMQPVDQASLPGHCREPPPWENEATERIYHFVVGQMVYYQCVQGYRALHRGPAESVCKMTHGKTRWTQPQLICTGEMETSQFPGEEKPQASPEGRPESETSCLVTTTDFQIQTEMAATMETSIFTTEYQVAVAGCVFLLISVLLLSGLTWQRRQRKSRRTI
Sequence of UniProt P01589 (P14784 27-551, chain 2 of 3, further chain): as the sequence (P14784 27-551, chain 1 of 2) above
Sequence of UniProt P01589 (P31785 23-369, chain 3 of 3, further chain): as the sequence (P31785 23-369, chain 2 of 2, further chain) above

With 14.18-IL2, the ED50 Ratio = ED50 [TF1-β]/ED50 [CTLL-2], cell proliferation in assay [1] amounted to 0.07.
On to N-Glycanase treated 14.18-IL2, for which, in assay [1], the ED50 Ratio = ED50 [TF1-β]/ED50 [CTLL-2], cell proliferation worked out at 0.21 and the fold increase of the ED50 ratio (TF-1β/CTLL-2) compared to untreated 14.18-IL2 amounted to 3 fold.
For N-Glycanase treated huKS-IL2, in assay [1], the ED50 Ratio = ED50 [TF1-β]/ED50 [CTLL-2], cell proliferation came to 0.45 and the fold increase of the ED50 Ratio (TF-1β/CTLL-2) relative to huKS-IL2 was found to be 2 fold.
Turning to huKS-IL2, in assay [1], the ED50 Ratio = ED50 [TF1-β]/ED50 [CTLL-2], cell proliferation came to 0.11; the ED50 Ratio TF-1β/Kit-225, cell proliferation was 4; the fold change of the ED50 ratio (TF-1β/CTLL-2) against free IL-2 was 5 fold.
huKS-ala-IL2 displayed an ED50, proliferation of Kit-225 cells in assay [2] of 0.08. In assay [1], the ED50 Ratio = ED50 [TF1-β]/ED50 [CTLL-2], cell proliferation was 0.17 and the ED50 Ratio TF-1β/Kit-225, cell proliferation was found to be 10.4. In assay [3], this substance returned an ED50, proliferation of CTLL-2 cells of 5. For the same substance, the EC50 in assay [4] turned out to be 5 µg/mL.
As to huKS-ala-IL2(N88R), the ED50, proliferation of Kit 225 cells in assay [2] was determined as 0.13. Also, in assay [1], the ED50 Ratio = ED50 [TF1-β]/ED50 [CTLL-2], cell proliferation was 2300; the ED50 Ratio TF-1β/Kit-225, cell proliferation was 52000; the shift in selectivity (ED50 ratio TF-1β/CTLL-2) relative to KS-ala-IL2 was 20000 fold. Also, in assay [3], the ED50, proliferation of CTLL-2 cells was determined as 3.
